Publication PMC7498356

Tests used:
[1] = target: T1, TDRD5 LOTUS domain 1 (L1) (Mus musculus, UniProt Q5VCS6 7-80); experiment: DRaCALA
T1 sequence: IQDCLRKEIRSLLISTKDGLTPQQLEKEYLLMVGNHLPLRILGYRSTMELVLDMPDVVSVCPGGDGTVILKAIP

human MARF1 L7 = target: T2, human MARF1 L7 (Homo sapiens, UniProt Q9Y4F3 1411-1485); experiment: ELISA
T2 sequence: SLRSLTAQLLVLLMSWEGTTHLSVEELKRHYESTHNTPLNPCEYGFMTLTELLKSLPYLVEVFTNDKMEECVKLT

TP0894-LOTUS = target: T3, TP0894-LOTUS (Treponema pallidum subsp. pallidum str. …, UniProt O83864 178-253); experiment: ELISA
T3 sequence: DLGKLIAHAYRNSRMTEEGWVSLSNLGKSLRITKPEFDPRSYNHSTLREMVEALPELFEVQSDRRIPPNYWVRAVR

TDRD7 L1 = target: T4, TDRD7 L1 (Mus musculus, UniProt Q8K1H1 3-76); experiment: ELISA
T4 sequence: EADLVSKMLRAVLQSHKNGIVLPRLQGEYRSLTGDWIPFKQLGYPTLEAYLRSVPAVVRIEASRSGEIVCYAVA

human MARF1 L1 = target: T5, human MARF1 L1 (Homo sapiens, UniProt Q9Y4F3 875-949); experiment: ELISA
T5 sequence: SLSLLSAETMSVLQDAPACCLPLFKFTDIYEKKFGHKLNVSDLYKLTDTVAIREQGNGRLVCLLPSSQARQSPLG

Oskar LOTUS (eLOTUS) = target: T6, Oskar LOTUS (eLOTUS) (Drosophila, UniProt P25158 139-241); experiment: ELISA
T6 sequence: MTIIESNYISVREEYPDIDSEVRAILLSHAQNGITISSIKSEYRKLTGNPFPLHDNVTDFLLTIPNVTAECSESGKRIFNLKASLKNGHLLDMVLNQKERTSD

TDRD7 L2 = target: T7, TDRD7 L2 (Mus musculus, UniProt Q8K1H1 222-291); experiment: ELISA
T7 sequence: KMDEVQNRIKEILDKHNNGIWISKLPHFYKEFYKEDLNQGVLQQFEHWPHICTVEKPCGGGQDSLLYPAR

human TDRD7 L1 = human TDRD7 L1 (Homo sapiens, UniProt Q8NHU6 3-76); experiment: ELISA
TDRD7 L3 = target: T8, TDRD7 L3 (Mus musculus, UniProt Q8K1H1 325-394); experiment: ELISA
T8 sequence: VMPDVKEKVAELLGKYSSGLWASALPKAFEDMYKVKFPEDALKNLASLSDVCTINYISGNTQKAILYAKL

AT3G52980-LOTUS = target: T9, AT3G52980-LOTUS (plant, UniProt Q9LF94 199-282); experiment: ELISA
T9 sequence: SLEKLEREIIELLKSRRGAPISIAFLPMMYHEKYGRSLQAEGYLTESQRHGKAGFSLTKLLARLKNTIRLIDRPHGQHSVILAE

human TDRD5 L1 = target: T10, human TDRD5 L1 (Homo sapiens, UniProt Q8NAT2 7-80); experiment: ELISA
T10 sequence: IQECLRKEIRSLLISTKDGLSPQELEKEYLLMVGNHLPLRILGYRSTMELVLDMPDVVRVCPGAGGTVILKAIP

Tejas LOTUS = target: T11, Tejas LOTUS (Drosophila, UniProt A1Z9P1 6-79); experiment: ELISA
T11 sequence: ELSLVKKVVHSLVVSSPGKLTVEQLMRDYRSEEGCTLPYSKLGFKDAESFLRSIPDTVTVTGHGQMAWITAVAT

[2] = target: T12, TDRD5 LOTUS domain 3 (L3) (Mus musculus, UniProt Q5VCS6 291-365); experiment: pull-down, ELISA
T12 sequence: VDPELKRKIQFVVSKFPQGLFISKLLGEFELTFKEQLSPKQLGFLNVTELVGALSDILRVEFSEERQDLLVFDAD

[3] = target: T13, TDRD5 LOTUS domain 2 (L2) (Mus musculus, UniProt Q5VCS6 122-197); experiment: pull-down, ELISA
T13 sequence: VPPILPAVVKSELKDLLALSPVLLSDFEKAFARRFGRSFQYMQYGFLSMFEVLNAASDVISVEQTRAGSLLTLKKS

[4] = target: T1, TDRD5 LOTUS domain 1 (L1); experiment: pull-down, ELISA
[5] = target: T1, TDRD5 LOTUS domain 1 (L1); experiment: ELISA
[6] = target: T12, TDRD5 LOTUS domain 3 (L3); experiment: ELISA

Chain of human TDRD7 L1 (Q8NHU6 3-76): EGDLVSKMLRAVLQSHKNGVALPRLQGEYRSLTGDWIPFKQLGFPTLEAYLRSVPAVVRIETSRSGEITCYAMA

GGUGGGCAGGGGAGUGGGGGUGGG (structured_RNA) [Cluster G4-1 RNA]
binding result [1]: binds | binding result (human MARF1 L7): binds | binding result (TP0894-LOTUS): binds | binding result (TDRD7 L1): binds | binding result (human MARF1 L1): binds | binding result (Oskar LOTUS (eLOTUS)): binds | binding result (TDRD7 L2): binds | binding result (human TDRD7 L1): binds | binding result (TDRD7 L3): binds | binding result (AT3G52980-LOTUS): binds | binding result (human TDRD5 L1): binds | binding result (Tejas LOTUS): binds | binding result [2]: no binding

CCCCCCCCCCCCCCCCCCC (ssRNA) [Poly(C)]
binding result [3]: no binding | binding result [2]: no binding | binding result [4]: no binding

TTAGGGTTAGGGTTAGGGTTAGGG (structured_DNA) [TERRA G4 DNA]
binding result [5]: no binding

GGGGGGGGGGGGGGGGGGG (ssRNA) [Poly(G)]
binding result [6]: no binding
